In patent US20100011462A1, “FLAVIN MONOOXYGENASES AND TRANSCRIPTION FACTORS INVOLVED IN GLUCOSINOLATE BIOSYNTHESIS” (University of Copenhagen, priority 2006, published 2010):

Assay: Activity of FMOs of the invention in E. coli or in seeds using a variety of substrates
Type: biochemical, Arabidopsis thaliana
Conditions: for S-oxygenation activity: desulfo and intact glucosinolates; for substrate specificity: methylthio glucosinolates in Arabidopsis
From the text: FIG. 11—Heterologous expression of At1g62560 in E. coli using 4MTB as substrate, with an empty vector as control.
FIG. 13—Heterologous expression of At1g62540 in E. coli using 4MTB as substrate, with an empty vector as control.
FIG. 15—Heterologous expression of At1g12140 in E. coli using desulfo-glucosinolates from glucosinolates from Arabidopsis Col-0 seeds as substrate mix.
FIG. 17—Heterologous expression of At1g62570 in E. coli using desulfo-glucosinolates from glucosinolates from Arabidopsis Col-0 seeds as substrate mix, with an empty vector as control.
FIGS. 11-18 show the activity of At1g62560, At1g65860, At1g62540, At1g12140 and At1g62570 in E. coli or in seeds using a variety of substrates.

B1: At1g62540: flavin-containing monooxygenase (FMO) from A. thaliana, SEQ ID NO 8 (protein, listed as Arabidopsis thaliana)
chain: MAPAQNPISSQHVVVIGAGAAGLVAARELSREGHTVVVLEREKEVGGLWIYSPKAESDPLSLDPTRSIVHSSVYESLRTNLPRECMGFTDFPFVPRFDDESRDSRRYPSHMEVLAYLQDFAREFNLEEMVRFEIEVVRVEPVNGKWRVWSKTSGGVSHDEIFDAVVVCSGHYTEPNVAHIPGIKSWPGKQIHSHNYRVPGPFENEVVVVIGNFASGADISRDIAKVAKEVHIASRASEFDTYEKLPVPRNNLWIHSEIDTAYEDGSIVFKNGKVVYADSIVYCTGYKYRFTFLETNGYMNIDENRVEHLYKHVFPPALSPGLSFVGLPSMGIQFVMFEIQSKWVAAVLSRRVTLPTEDKMMEDISAWYASLDAVGIPKRYTHKLGKIQSEYLNWVAEECGCPLVEHWRNQQIVRGYQRLVSHPETYRDEWDDNDLMEEAYEDFARKKLISFHPSHIL
S-oxygenation activity: S-oxygenation activity | substrate specificity: broad specificity towards all methylthio (MT) glucosinolates

B2: At1g62570: flavin-containing monooxygenase (FMO) from A. thaliana, SEQ ID NO 6 (protein, listed as Arabidopsis thaliana)
chain: MAPAPSPINSQHVAVIGAGAAGLVAARELRREGHTVVVLDREKQVGGLWVYTPETESDELGLDPTRPIVHSSVYKSLRTNLPRECMGYKDFPFVPRGDDPSRDSRRYPSHREVLAYLQDFATEFNIEEMIRFETEVLRVEPVNGKWRVQSKTGGGFSNDEIYDAVVMCCGHFAEPNIAQIPGIESWPGRQTHSHSYRVPDPFKDEVVVVIGNFASGADISRDISKVAKEVHIASRASKSNTFEKRPVPNNNLWMHSEIDTAHEDGTIVFKNGKVVHADTIVHCTGYKYYFPFLETNNYMRVDDNRVEPLYKHIFPPALAPGLSFIGLPAMGLQFYMFEVQSKWVAAVLSGRVTLPSVDEMMDDLKLSYETQEALGIPKRYTHKLGKSQCEYLDWIADLCGFPHVEHWRDQEVTRGYQRLGNQPETFRDEWDDDDLMEEAYEDFARLNLINFHPSRFLESGR
S-oxygenation activity: S-oxygenation activity | substrate specificity: broad specificity towards all methylthio (MT) glucosinolates

B3: At1g12140: flavin-containing monooxygenase (FMO) from A. thaliana, SEQ ID NO 10 (protein, listed as Arabidopsis thaliana)
chain: MAPARTRVNSLNVAVIGAGAAGLVAARELRRENHTVVVFERDSKVGGLWVYTPNSEPDPLSLDPNRTIVHSSVYDSLRTNLPRECMGYRDFPFVPRPEDDESRDSRRYPSHREVLAYLEDFAREFKLVEMVRFKTEVVLVEPEDKKWRVQSKNSDGISKDEIFDAVVVCNGHYTEPRVAHVPGIDSWPGKQIHSHNYRVPDQFKDQVVVVIGNFASGADISRDITGVAKEVHIASRSNPSKTYSKLPGSNNLWLHSMIESVHEDGTIVFQNGKVVQADTIVHCTGYKYHFPFLNTNGYITVEDNCVGPLYEHVFPPALAPGLSFIGLPWMTLQFFMFELQSKWVAAALSGRVTLPSEEKMMEDVTAYYAKREAFGQPKRYTHRLGGGQVDYLNWIAEQIGAPPGEQWRYQEINGGYYRLATQSDTFRDKWDDDHLIVEAYEDFLRQKLISSLPSQLLES
S-oxygenation activity: S-oxygenation activity | substrate specificity: mainly converts long-chain (especially octyl)methylthioalkyl-into methylsulfinyl glucosinolates
